The values that follow come from the supplement of paper PMC10567573.

The nature of this data set: protein stability index of a GFP-peptide fusion (GPS, HEK-293T) (PSI 1-6); higher = more stable.
[1] abbreviates: treatment: DMSO, c terminus: native.
[2] abbreviates: treatment: MLN4924 1 uM, 8 h, c terminus: native.
Where [3] appears, read: treatment: DMSO, c terminus: a fixed tail appended.
Setting [4] is: treatment: MLN4924 1 uM, 8 h, c terminus: a fixed tail appended.

± gives the standard deviation.
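Also: 24-mer peptide tiles fused after GFP, lentivirally expressed, FACS-sorted into six equal bins by GFP/DsRed ratio, decoded by Illumina sequencing, PSI is the read-weighted mean bin number.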

Turning to RQAVAWLVAMHKAAKLLYESRDQ [ZFYVE21], the protein stability index came out at 2.95 ± 1.1 under setting [1] and 2.28 ± 0.3 under setting [2].

In the case of RQFLPEEFMKTLEKTGPQLTSRIK [DENND6A], the protein stability index is, setting by setting: under setting [3], 3.55 ± 0.33; under setting [4], 3.58 ± 0.43.

RQSYDISIVAQVDQTGSKSSNLLD [CARM1]: the protein stability index was found to be 3.93 ± 0.092 under setting [3] and 4.07 ± 0.17 under setting [4].

Turning to RRLLRRLSPSRGVAQCLRDLVAMQ [ZSWIM9], the protein stability index by setting is: under setting [3], 2.49 ± 0.36; under setting [4], 2.89 ± 0.32.

Take RRQLEACQRERAFSVKFEVQAPRW [OAS1]: the protein stability index is, setting by setting: under setting [3], 2.75 ± 0.23; under setting [4], 2.93 ± 0.18.

As for RSNTLRERSQVRGSAPPRATPGGG [PCDHGC5], the protein stability index was 4.68 ± 0.17 under setting [3] and 4.47 ± 0.28 under setting [4].

RSQKHKERIRLLRQKREAAARKKY [C18orf25] came in with a protein stability index under setting [3] of 4.17 ± 0.34 and a protein stability index under setting [4] of 4.36 ± 0.31.

Turning to RSRREQFSRAPVSALPLAPNHLGG [STX5], the protein stability index is, setting by setting: under setting [3], 3.46 ± 0.15; under setting [4], 3.77 ± 0.31.

In the case of RSVRVRLLLSFWKETDPLTFNFIS [PLD5], the protein stability index is, setting by setting: under setting [3], 2.89 ± 0.71; under setting [4], 2.54 ± 0.18.

Take RTITFEQFQEALEELAKKRFKDKS [TPPP]: the protein stability index runs as follows: under setting [3], 2.54 ± 0.11; under setting [4], 2.74 ± 0.43.

As to RVFLFQAPSKEEMLSWILRINLVA [PSD2], the protein stability index under setting [3] turned out to be 2.64 ± 0.54 and the protein stability index under setting [4] came to 2.7 ± 0.46.

With RVIKCDPDCLRACQEQIEALLESS [CCND1], the protein stability index reads like this: under setting [3], 3.3 ± 0.3; under setting [4], 3.19 ± 0.2.

As for RVMPTQEVQELPIPSKLLEFLSYR [WSB1], the protein stability index is, setting by setting: under setting [3], 2.94 ± 0.26; under setting [4], 2.95 ± 0.24.

RVQAALVWERPARSALWCLGLNAA [RETREG3] registered a protein stability index under setting [3] of 2.1 ± 0.71 and a protein stability index under setting [4] of 2.38 ± 0.14.

With RVRRFQVVEVTKGILEHVDSASPV [M1AP], the protein stability index is, setting by setting: under setting [3], 3.36 ± 0.2; under setting [4], 3.37 ± 0.17.

Take RYLGRPPSPTSPPPPELMDVSLVG [DYRK1B]: the protein stability index by setting is: under setting [3], 3.98 ± 0.26; under setting [4], 4.07 ± 0.29.

Turning to SAAGIEARSRALRRRWCPAGIMLL [SPACA3], the protein stability index by setting is: under setting [3], 2.3 ± 0.11; under setting [4], 2.38 ± 0.15.

The sequence SAAVPAGQTYVDAGYEVDKIAQNL [CHIT1] registered a protein stability index under setting [3] of 4.39 ± 0.3 and a protein stability index under setting [4] of 4.61 ± 0.46.

As to SALPLAPNHLGGGAVVLGAESHAS [STX5], the protein stability index under setting [3] is 4.22 ± 0.32 and the protein stability index under setting [4] came to 4.32 ± 0.53.

Take SAQRSKDPNSQVGACIVNSENKIV [DCTD]: the protein stability index is 4.91 ± 0.17 under setting [3] and 4.98 ± 0.12 under setting [4].

As for SASVIFEGVDIKNGTEDLPYAMKP [NSDHL], the protein stability index runs as follows: under setting [3], 4.39 ± 0.12; under setting [4], 4.28 ± 0.26.

Regarding SCNDSKLEFRSFWELIGEAAKSVK [S100A14], the protein stability index is 2.18 ± 0.21 under setting [3] and 2.11 ± 0.52 under setting [4].

Take SCTTRLCQEEQLRSHENKLRQLTA [PSD2]: the protein stability index is, setting by setting: under setting [3], 3.6 ± 0.22; under setting [4], 3.79 ± 0.33.

Regarding SDLFRLQEYNIPGVIQSVIGWKTV [CDS2], the protein stability index was 2.28 ± 0.26 under setting [3] and 2.1 ± 0.28 under setting [4].

As to SDLFSLAEEYEDSSTKPPKSRRKA [INTS3], the protein stability index was determined as 5.15 ± 0.34 under setting [3] and 5.33 ± 0.36 under setting [4].

SDNMSHLMVDFAQERQMLQALKFL [FSD1] returned a protein stability index under setting [3] of 2.55 ± 0.3 and a protein stability index under setting [4] of 2.49 ± 0.23.

In the case of SDSESKPDQEAEPQEAAGAQGRAG [EPB41L3], the protein stability index turned out to be 5.54 ± 0.37 under setting [3] and 5.63 ± 0.22 under setting [4].

In turn, SERAEVQRLEEQERRHREEKERRK [RSPH3] had a protein stability index under setting [3] of 5.31 ± 0.47 and a protein stability index under setting [4] of 5.673 ± 0.05.

In the case of SESSGQTHLEGDTVQIICNTGYRL [CFHR2], the protein stability index is 3.34 ± 0.21 under setting [3] and 3.48 ± 0.38 under setting [4].

On to SESTNTTIEDEDTKVRKQEIIKVT [CAMK2A], for which the protein stability index turned out to be 5.32 ± 0.24 under setting [3] and 5.31 ± 0.18 under setting [4].

SFGFPRTVKHIDAALSEENTGKTY [MMP1]: the protein stability index by setting is: under setting [3], 4.13 ± 0.25; under setting [4], 3.94 ± 0.16.

Regarding SFGQVVKAYDHQTQELVAIKIIKN [DYRK1B], the protein stability index reads like this: under setting [3], 2.76 ± 0.31; under setting [4], 2.97 ± 0.2.

In the case of SFTTNEKAILEQNFRDLVRDLEKQ [TRIM29], the protein stability index is 3.97 ± 0.19 under setting [3] and 4.19 ± 0.2 under setting [4].

Turning to SGADFHKKDKCGRTPLHYAAANCH [ANKRD44], the protein stability index came out at 3.42 ± 0.44 under setting [3] and 3.32 ± 0.27 under setting [4].

Regarding SGDPPLSSNVSLSLFVLDQNDNAP [PCDHGA10], the protein stability index reads like this: under setting [3], 3.63 ± 0.09; under setting [4], 3.59 ± 0.27.

In the case of SGPPASYCAKLCEPQWFYEETESS [C8orf76], the protein stability index is, setting by setting: under setting [3], 4.02 ± 0.12; under setting [4], 4.37 ± 0.19.

Consider SGSAGQYGSDQQHHLGSGSGAGGT [MYOZ1], for which the protein stability index runs as follows: under setting [3], 4.98 ± 0.21; under setting [4], 5.12 ± 0.29.

As to SGTPQAGTPSPSRSRDSNSGPEEP [RTN2], the protein stability index is, setting by setting: under setting [3], 5.35 ± 0.068; under setting [4], 5.48 ± 0.28.

Consider SHFSRLSEEKLALDNNASASGNAT [C10orf62], for which the protein stability index was 5.03 ± 0.14 under setting [3] and 5.13 ± 0.26 under setting [4].

In the case of SIKNSLKVAAISESPVAEKSAST [PTGFR], the protein stability index was 4.5 ± 0.14 under setting [1] and 4.27 ± 0.2 under setting [2].

Sequence SIMEMQAMEVNTSASEILYSAPPG [NFE2L1] yielded a protein stability index under setting [3] of 3.81 ± 0.33 and a protein stability index under setting [4] of 3.94 ± 0.28.

Regarding SKAPGSCDPGTDPCPEDASTPRPP [TLE6], the protein stability index reads like this: under setting [3], 5.59 ± 0.28; under setting [4], 5.45 ± 0.081.

Take SKYHRFISFTLYLIGFCMFVLSLV [CDS2]: the protein stability index came out at 2.04 ± 0.36 under setting [3] and 1.86 ± 0.51 under setting [4].

In turn, SLCCCCRWCCCCGERETRTPEELT [CLCN6] yielded a protein stability index under setting [3] of 3.66 ± 0.41 and a protein stability index under setting [4] of 3.88 ± 0.22.

Consider SLGRHKRTHTGEKPYTCSVCGKSF [ZNF8], for which the protein stability index is, setting by setting: under setting [3], 3.2 ± 0.58; under setting [4], 3.69 ± 0.6.

For SLKLALLFYILTFVGAIFNGLTLL [RTN2], the protein stability index was 3.88 ± 0.94 under setting [3] and 3.04 ± 0.11 under setting [4].

As for SLLLKKPLRVDLILENTSKVPAPK [NOP53], the protein stability index runs as follows: under setting [3], 2.81 ± 0.16; under setting [4], 2.98 ± 0.15.

SLQERKQALYEYARRRFTERRAQE [AUP1]: the protein stability index came to 4.53 ± 0.18 under setting [3] and 4.44 ± 0.21 under setting [4].

SLRSIEQKYKLFQQQQLTFTAALE [SPACA9]: the protein stability index amounted to 2.6 ± 0.34 under setting [3] and 2.73 ± 0.35 under setting [4].

As for SLSVFTEPNRHFYREMQSFSEDI [FBXO33], the protein stability index is, setting by setting: under setting [1], 3.26 ± 0.32; under setting [2], 3.33 ± 0.27.

Consider SMFSRVGGIIAPFIPSLKYVQWSL [SLC22A15], for which the protein stability index came out at 2.54 ± 0.41 under setting [3] and 2.5 ± 0.65 under setting [4].

On to SNGVEMAAKFPSGSQRARVVNTDH [SDE2], for which the protein stability index amounted to 4.59 ± 0.2 under setting [3] and 4.58 ± 0.26 under setting [4].

As to SPPLSTEAHFMLQVADINDNPPTF [PCDHGA10], the protein stability index amounted to 3.73 ± 0.17 under setting [3] and 3.9 ± 0.19 under setting [4].

With SPVAHKHLSRQKIDPLLYMTEWFM [TBC1D10A], the protein stability index under setting [3] was 2.19 ± 0.18 and the protein stability index under setting [4] amounted to 2.23 ± 0.16.

For the sequence SPVRCGGPGDASPRGCGARRAGEG [WEE1], the protein stability index by setting is: under setting [3], 4.54 ± 0.19; under setting [4], 4.68 ± 0.095.

As to SQDVSDCYLELFPAHLYFQAHGSE [PLEKHN1], the protein stability index turned out to be 2.49 ± 0.19 under setting [3] and 2.81 ± 0.4 under setting [4].

Take SQHRRIHSGEKPFICKECGKAYGW [ZNF232]: the protein stability index was found to be 2.67 ± 0.27 under setting [3] and 2.97 ± 0.64 under setting [4].

On to SQKYKEGKYIIELNHMIKDNGWD [YPEL3], for which the protein stability index is, setting by setting: under setting [1], 2.94 ± 0.28; under setting [2], 2.97 ± 0.15.

On to SQLSMKASLENSLEETKGRYCMQL [KRT16], for which the protein stability index reads like this: under setting [3], 3.44 ± 0.18; under setting [4], 3.61 ± 0.31.

In the case of SRDEAALPELLLGALPVGSNLTSN [RETREG3], the protein stability index under setting [3] turned out to be 4.19 ± 0.23 and the protein stability index under setting [4] was 4.43 ± 0.28.

Regarding SRILKKTVYNEMDKNRCELLSFLL [EDNRA], the protein stability index was 2.14 ± 0.67 under setting [3] and 1.96 ± 0.36 under setting [4].

Turning to SRNAADKERAAGGGAGSSEDDAQS [GOLPH3], the protein stability index under setting [3] is 5.63 ± 0.24 and the protein stability index under setting [4] is 5.6 ± 0.15.

In the case of SSAVYFAEADEPTTHFQSIPDAFW [KCNA4], the protein stability index was determined as 2.54 ± 0.16 under setting [3] and 2.67 ± 0.33 under setting [4].

With SSDKVRGIETLESVPIIGGFWETI [PHTF1], the protein stability index was determined as 2.56 ± 0.32 under setting [3] and 2.65 ± 0.31 under setting [4].

For the sequence SSDVSTAGTGASRSSHSSDSGGSD [ELF3], the protein stability index by setting is: under setting [3], 5.44 ± 0.32; under setting [4], 5.565 ± 0.049.

Regarding SSELTDSLRTLKPEGNILRDRFKS [NOP53], the protein stability index worked out at 4.42 ± 0.22 under setting [3] and 4.49 ± 0.14 under setting [4].

On to SSHFLEQTLDKKLMSDLRRKRTAH [INTS4], for which the protein stability index was determined as 4.06 ± 0.23 under setting [3] and 4.14 ± 0.17 under setting [4].

With SSTSPLMEGTPTIKSKKKLLQIID [VPS39], the protein stability index was determined as 3.76 ± 0.23 under setting [3] and 3.79 ± 0.23 under setting [4].

As for STKGSRSNLSTRDASILTEMPTQP [NETO1], the protein stability index is 4.52 ± 0.27 under setting [3] and 4.71 ± 0.24 under setting [4].

STPLTATPGGRGDMKYGIYAVENE [VTI1B] returned a protein stability index under setting [3] of 4.53 ± 0.19 and a protein stability index under setting [4] of 4.42 ± 0.22.

STSEDSLVKQECIKEVVEKREACH [FAN1] returned a protein stability index under setting [3] of 5.52 ± 0.22 and a protein stability index under setting [4] of 5.23 ± 0.092.

As to STSEESWTDSEVDSSCSGQPIHLW [SPDEF], the protein stability index was found to be 4.21 ± 0.32 under setting [3] and 4.37 ± 0.25 under setting [4].
